# Measurements reported in the domain aggregation screens of Martell et al. (2025).
# Assay: soluble fraction after stress (log2 fold change); higher = more stays soluble; pooled small domains, quantitative proteomics
# Conditions: stress: pH 4
# Procedure, shortened: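 Pooled custom libraries of small protein domains were subjected to pH 4 and measured by high-throughput quantitative proteomics. The log2 fold change in soluble amount per domain is reported, higher values meaning more remained soluble. This is used as a measure of aggregation propensity.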
row,Sequence,soluble fraction (log2)
1,HMPPALTELLSVRTNASGTIDYLLPDRSAGLRVENGSKYSGMVPDSIYRLVAIYEIKDAKEPSAYIYTI,-0.223
2,HMPPFDDILAEYYEPLYRHVRRMVVSHDDAKDVMQEAMLRIFQGLDGLKDPSAVRTWVWRIATNEALRH,-1.76
3,HMPPPVDLDKKGYKLRGIVLEDGRSAAFVFVPAEKRVVVLRENASGPVRLLETGMRRIRLQTPEGAGYLEL,-0.259
4,HMPPQPATQNTKAQVMQLAREKELMAGEGRGANVEALEKFANEHGISLRGMTEEQAEQLVKLLMEYTP,0.19
5,HMPPRFVPATGADLRRWLDVSGLTAEAAGDLLGVSGARFRQWLSRYRSAPLPDPVRALLVALLRP,-0.156
6,HMPPSRFNELSMWFQEQLTEAGLKVDSGALKMLIEWLGQDQARLPSIIEVLVSTYGTKKKLTVDEIEPFL,-1.02
7,HMPPTSADGIEKYLASGMIRGVGPVYAKKLVSAFGDKVFDIIEAAPHQLQEVEGIGRVRAASILAAWAEQ,-0.0654
8,HMPQLEDLEPLDSSGMVRRDGPHLVLAVGRHRGRHLEEVRDSDPSYLHWLLSPKGIEDIQAKEDIKTYLNL,-0.302
9,HMPQLVGDVDGDGRVSVTDGEWIRASYGALPWYAGWRAAADLDGSRKIDVVDLELLRTKMGN,-0.772
10,HMPRIYSITINPEKIRTVIGPGGKVIKDITAKTGTKIEIDDSGKVDIFSPDEEHARMAVEIINTLTEE,-0.221
11,HMPRKYFPFYFTFRETAQTMPPRLRAVFYEAIIEYGTTGKEPTLPKSIAGYWPLVKPTLDSAKAHYDAG,-0.0316
12,HMPRNEIQRSVLNELVQWIKNNLAKKLTMQALSRFSGYSEWHLFRLFRHYFNMSPMAYIRQQRMQ,-0.359
13,HMPRPRIHSVVRGDTLYGISRQYGVAMSKLASLNGLKSPYRIMVGRSLRLPSAIEAERDRTAREVVQ,0.208
14,HMPRVLSSYTLTLRHQPTAEAVALVRTLLSPAGSVEVKEDGRTLVVRDELAALSRIVGALRSFDH,-0.139
15,HMPRVSIEKIKKVVELLKHNPDYTYSKIGNIVGIGRKTVSGINNGKLYTDLVEELGINEFPI,0.0348
16,HMPRYQQIARQLKTAIEHGELKPGARLPSSRTWSQELGISRSTVESAYTELVAQGWLERRGQAGTFVSAQL,0.0517
17,HMPRYSGMFAAWLHKALARMGKSMSDSARSAFTERVELDYSSANNELQKLSLLVGDRKVITEADVMRAIG,-0.0455
18,HMPSALGDKIRAARKALKLSLEDLAEKVSSSKSYMWELENRDEPNPGADLLMRIAAALNVTTEHLLGP,-0.0842
19,HMPSDLQATLRAVQGMLQGVEGVDARLAGQRILLEGDSADARARERAAAIAGIFPGVVIDFVG,0.062
20,HMPSEAVQNIIGNVKSKRRVATIGQARGLASNVIKEGKFDNVSNTAMVNRLIDLGIISNSIGYQ,0.283
21,HMPSEQGANKARDIIFRHHMKVDVWVGSWENARNYAEQAIKQGVKVIISRGGTAALLRHSLDTAIIKVR,0.22
22,HMPSGLFEPIKKSELSIESIDLLKDQIRAFKQADIRITFGFLLDLITKGENPAYVNASKLFEQAWER,-0.241
23,HMPSPSTLAKVDPFLLVTNADSLLMARPDDSELRAAIITAHINLAKTNNSVDHYKEVLKIEPQNALANYN,0.0418
24,HMPSPTPEQVLKAFTDAAMQKNTVEELKQAFAKAWKMLEGTPEQHKAQDVYNIRRDELEGAA,-0.0378
25,HMPSSIEGIEKYLGSGMIRGIGAVYAKRLVKQFGKDVFDIIEETPERLREVEGIGPIRAARIISGWADQ,-0.154
26,HMPTITSPMVGTFYRAPSPGAAPFIEVGDTVKKGQVIGIIEAMKLLNEVEADKDGVVQAFAAENGEL,-0.681
27,HMPTLNIVDGHIAASDGVRILSIHNVTGRRYATSSKLPAGIYIVVLMPAKAETPLTVKVIVEA,-0.17
28,HMPTMTDIPIKIIRSRRRTLAIEVREGGEVIVRAPLYSRKAEIDAFVKAHENWIITKYNLMITKQN,0.352
29,HMPTPRVPMSKQRQILQLLQDGHLSTREIAAALHISKTSVGDIAKAARLAGLDWEAASKLSDEELSARIYK,0.0991
30,HMPTSPKANFLKELPQEFTRKQAVTIGDKLNIKERTVDNYLAKLEQAGYLVKPKAGYYQKIKS,0.22
